Laboratory results as given in US20250076311A1 (Chugai, published 2025).
Values belong to the binder of their own block, whether it stands above or below them.

Assays:
[1] = molecular target: T1, cynomolgus monkey FcγRIIb extracellular domain with C-terminal His-tag (cynomolgus monkey); assay: SPR (Biacore), KD of SG1 / KD of variant
T1 construct: also called cyno FcgRIIb; cynoFcγRIIb
T1 chain: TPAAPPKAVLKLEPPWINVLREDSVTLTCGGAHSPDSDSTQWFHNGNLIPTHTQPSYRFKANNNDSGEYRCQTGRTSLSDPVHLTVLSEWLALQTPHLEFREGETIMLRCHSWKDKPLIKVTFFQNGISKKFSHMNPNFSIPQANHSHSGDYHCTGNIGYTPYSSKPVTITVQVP

[2] = molecular target: T2, human FcγRIIIaV extracellular domain with C-terminal His-tag (human, UniProt P08637 17-208); assay: SPR (Biacore), KD of SG1 / KD of variant
T2 construct: also called human FcgRIIIaV
T2 sequence (P08637 17-208 F176V): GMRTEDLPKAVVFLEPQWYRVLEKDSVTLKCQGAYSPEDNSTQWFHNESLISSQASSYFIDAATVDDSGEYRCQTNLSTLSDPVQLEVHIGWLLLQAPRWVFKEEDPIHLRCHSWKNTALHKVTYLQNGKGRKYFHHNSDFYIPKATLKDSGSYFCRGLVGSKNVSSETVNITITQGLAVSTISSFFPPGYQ

[3] = molecular target: T3, cynomolgus monkey FcγRIIa2 extracellular domain with C-terminal His-tag (cynomolgus monkey); assay: SPR (Biacore), antibody captured, FcgR analyte
T3 construct: also called cyno FcgRIIa2; cynoFcγRIIa2
T3 chain: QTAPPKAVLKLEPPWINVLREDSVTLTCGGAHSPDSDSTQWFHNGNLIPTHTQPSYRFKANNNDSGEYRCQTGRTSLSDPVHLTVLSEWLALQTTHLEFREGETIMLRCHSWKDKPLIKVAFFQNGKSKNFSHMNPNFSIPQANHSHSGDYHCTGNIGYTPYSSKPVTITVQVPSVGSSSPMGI

[4] = molecular target: T4, cynomolgus monkey FcγRIIa3 extracellular domain with C-terminal His-tag (cynomolgus monkey); assay: SPR (Biacore), KD of SG1 / KD of variant
T4 construct: also called cyno FcgRIIa3; cynoFcγRIIa3
T4 chain: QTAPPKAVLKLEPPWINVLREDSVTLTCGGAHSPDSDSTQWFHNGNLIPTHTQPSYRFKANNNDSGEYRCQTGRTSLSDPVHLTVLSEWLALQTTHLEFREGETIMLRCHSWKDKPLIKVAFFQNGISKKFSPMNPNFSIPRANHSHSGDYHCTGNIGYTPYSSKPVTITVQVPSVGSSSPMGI

[5] = molecular target: T5, human FcγRIIaR extracellular domain with C-terminal His-tag (human, UniProt P12318 34-217); assay: SPR (Biacore), KD of SG1 / KD of variant
T5 construct: also called human FcgRIIaR; FcγRIIa (type R)
T5 chain: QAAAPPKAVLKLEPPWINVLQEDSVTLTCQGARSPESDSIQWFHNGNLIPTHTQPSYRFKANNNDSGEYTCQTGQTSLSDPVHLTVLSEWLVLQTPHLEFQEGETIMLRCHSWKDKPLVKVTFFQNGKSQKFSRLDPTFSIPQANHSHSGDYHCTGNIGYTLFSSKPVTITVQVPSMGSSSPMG

[6] = molecular target: T6, human FcγRIIb extracellular domain with C-terminal His-tag (human, UniProt P31994 43-217); assay: SPR (Biacore), KD of SG1 / KD of variant
T6 construct: also called human FcgRIIb
T6 sequence: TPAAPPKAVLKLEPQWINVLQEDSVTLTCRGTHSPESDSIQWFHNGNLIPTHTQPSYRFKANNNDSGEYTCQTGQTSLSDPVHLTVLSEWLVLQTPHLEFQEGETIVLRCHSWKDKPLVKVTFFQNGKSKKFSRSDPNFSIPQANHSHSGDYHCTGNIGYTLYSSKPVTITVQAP

[7] = molecular target: T6, human FcγRIIb extracellular domain with …; assay: SPR (Biacore), antibody captured, FcgR analyte
[8] = molecular target: T3, cynomolgus monkey FcγRIIa2 …; assay: SPR (Biacore), KD of SG1 / KD of variant
[9] = molecular target: T2, human FcγRIIIaV extracellular domain …; assay: SPR (Biacore), antibody captured, FcgR analyte
[10] = molecular target: T7, human FcγRIIaH extracellular domain with C-terminal His-tag (human, UniProt P12318 34-217); assay: SPR (Biacore), antibody captured, FcgR analyte
T7 construct: also called human FcgRIIaH; FcγRIIa (type H)
T7 sequence: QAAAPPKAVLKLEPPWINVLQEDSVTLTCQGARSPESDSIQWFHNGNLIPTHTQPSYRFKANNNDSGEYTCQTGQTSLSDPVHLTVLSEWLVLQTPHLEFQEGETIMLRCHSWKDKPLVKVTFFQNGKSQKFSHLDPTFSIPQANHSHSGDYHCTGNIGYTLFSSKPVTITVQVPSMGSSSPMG

B1: M103205H795-MY462/M103202L889-SK1 (antibody)
heavy: QVTLKESGPVLVKPTETLTLTCTVSGIDLSHDDISWVRQAPGKGLEWVGIISYAGSTYYASWAKGRLTISKDTSKNQVVLTMTNMDPVDTATYYCARGVPAYSHGGDLWGQGTLVTVSSASTKGPSVFPLAPSSKSTSGGTAALGCLVKDYFPEPVTVSWNSGALTSGVHTFPAVLQSSGLYSLSSVVTVPSSSLGTQTYICNVNHKPSNTKVDKKVEPKSCDKTHTCPPCPGPELLTGPSVFLFPPKPKDTLMISRTPEVTCVVVDVSDEDPEVKFNWYVDGVEVHNAKTKPREEQYNSTYRVVSVLTVLHQDWLNGKEYKCKVSNKALPKPIEKTISKAKGQPREPQVYTLPPSREEMTKNQVSLTCLVKGFYPSDIAVEWESNGQPENNYKTTPPVLDSDGSFFLYSKLTVDKSRWQQGNVFSCSVMHEALHNHYTQKSLSLSP
light: DIVMTQSPATLSLSPGERATLSCTSSQSVYHANWLSWFQQKPGQPPKLLIYWASTLAYGVPSRFSGSGSGTDFTLTISSLQPEDAATYYCAGGYGGGRYAFGQGTKVEIKRTVAAPSVFIFPPSDEQLKSGTASVVCLLNNFYPREAKVQWKVDNALQSGNSQESVTEQDSKDSTYSLSSTLTLSKADYEKHKVYACEVTHQGLSSPVTKSFNRGEC
notes: Substitutions in EU numbering on SG1
- KD fold (SG1 = 1) [1]: 3.6 fold
- KD fold (SG1 = 1) [2]: 0.2 fold
- Kd [3]: 1.8 µM

B3: M103205H795-MY470/M103202L889-SK1 (antibody)
chain 1: QVTLKESGPVLVKPTETLTLTCTVSGIDLSHDDISWVRQAPGKGLEWVGIISYAGSTYYASWAKGRLTISKDTSKNQVVLTMTNMDPVDTATYYCARGVPAYSHGGDLWGQGTLVTVSSASTKGPSVFPLAPSSKSTSGGTAALGCLVKDYFPEPVTVSWNSGALTSGVHTFPAVLQSSGLYSLSSVVTVPSSSLGTQTYICNVNHKPSNTKVDKKVEPKSCDKTHTCPPCPQPELLTGPSVFLFPPKPKDTLMISRTPEVTCVVVDVSDEDPEVKFNWYVDGVEVHNAKTKPREEQYNSTYRVVSVLTVLHQDWLNGKEYKCKVSNKALPKPIEKTISKAKGQPREPQVYTLPPSREEMTKNQVSLTCLVKGFYPSDIAVEWESNGQPENNYKTTPPVLDSDGSFFLYSKLTVDKSRWQQGNVFSCSVMHEALHNHYTQKSLSLSP
chain 2: DIVMTQSPATLSLSPGERATLSCTSSQSVYHANWLSWFQQKPGQPPKLLIYWASTLAYGVPSRFSGSGSGTDFTLTISSLQPEDAATYYCAGGYGGGRYAFGQGTKVEIKRTVAAPSVFIFPPSDEQLKSGTASVVCLLNNFYPREAKVQWKVDNALQSGNSQESVTEQDSKDSTYSLSSTLTLSKADYEKHKVYACEVTHQGLSSPVTKSFNRGEC
- KD fold (SG1 = 1) [5]: 2.3 fold
- Kd [7]: 2.3 µM

B4: M103205H795-MY463/M103202L889-SK1 (antibody)
chain 1: QVTLKESGPVLVKPTETLTLTCTVSGIDLSHDDISWVRQAPGKGLEWVGIISYAGSTYYASWAKGRLTISKDTSKNQVVLTMTNMDPVDTATYYCARGVPAYSHGGDLWGQGTLVTVSSASTKGPSVFPLAPSSKSTSGGTAALGCLVKDYFPEPVTVSWNSGALTSGVHTFPAVLQSSGLYSLSSVVTVPSSSLGTQTYICNVNHKPSNTKVDKKVEPKSCDKTHTCPPCPHPELLTGPSVFLFPPKPKDTLMISRTPEVTCVVVDVSDEDPEVKFNWYVDGVEVHNAKTKPREEQYNSTYRVVSVLTVLHQDWLNGKEYKCKVSNKALPKPIEKTISKAKGQPREPQVYTLPPSREEMTKNQVSLTCLVKGFYPSDIAVEWESNGQPENNYKTTPPVLDSDGSFFLYSKLTVDKSRWQQGNVFSCSVMHEALHNHYTQKSLSLSP
chain 2: DIVMTQSPATLSLSPGERATLSCTSSQSVYHANWLSWFQQKPGQPPKLLIYWASTLAYGVPSRFSGSGSGTDFTLTISSLQPEDAATYYCAGGYGGGRYAFGQGTKVEIKRTVAAPSVFIFPPSDEQLKSGTASVVCLLNNFYPREAKVQWKVDNALQSGNSQESVTEQDSKDSTYSLSSTLTLSKADYEKHKVYACEVTHQGLSSPVTKSFNRGEC
- KD fold (SG1 = 1) [8]: 2.8 fold
- Kd [7]: 2.3 µM
- Kd [9]: 4.8 µM

Second part, the binder after the results:

- KD fold (SG1 = 1) [4]: 3.5 fold
- KD fold (SG1 = 1) [5]: 2.3 fold
- KD fold (SG1 = 1) [6]: 1.6 fold
B2: M103205H795-MY471/M103202L889-SK1 (antibody)
chain 1: QVTLKESGPVLVKPTETLTLTCTVSGIDLSHDDISWVRQAPGKGLEWVGIISYAGSTYYASWAKGRLTISKDTSKNQVVLTMTNMDPVDTATYYCARGVPAYSHGGDLWGQGTLVTVSSASTKGPSVFPLAPSSKSTSGGTAALGCLVKDYFPEPVTVSWNSGALTSGVHTFPAVLQSSGLYSLSSVVTVPSSSLGTQTYICNVNHKPSNTKVDKKVEPKSCDKTHTCPPCPRPELLTGPSVFLFPPKPKDTLMISRTPEVTCVVVDVSDEDPEVKFNWYVDGVEVHNAKTKPREEQYNSTYRVVSVLTVLHQDWLNGKEYKCKVSNKALPKPIEKTISKAKGQPREPQVYTLPPSREEMTKNQVSLTCLVKGFYPSDIAVEWESNGQPENNYKTTPPVLDSDGSFFLYSKLTVDKSRWQQGNVFSCSVMHEALHNHYTQKSLSLSP
chain 2: DIVMTQSPATLSLSPGERATLSCTSSQSVYHANWLSWFQQKPGQPPKLLIYWASTLAYGVPSRFSGSGSGTDFTLTISSLQPEDAATYYCAGGYGGGRYAFGQGTKVEIKRTVAAPSVFIFPPSDEQLKSGTASVVCLLNNFYPREAKVQWKVDNALQSGNSQESVTEQDSKDSTYSLSSTLTLSKADYEKHKVYACEVTHQGLSSPVTKSFNRGEC

- KD fold (SG1 = 1) [6]: 2.9 fold
- Kd [10]: 0.13 µM
B5: M103205H795-MY474/M103202L889-SK1 (antibody)
heavy: QVTLKESGPVLVKPTETLTLTCTVSGIDLSHDDISWVRQAPGKGLEWVGIISYAGSTYYASWAKGRLTISKDTSKNQVVLTMTNMDPVDTATYYCARGVPAYSHGGDLWGQGTLVTVSSASTKGPSVFPLAPSSKSTSGGTAALGCLVKDYFPEPVTVSWNSGALTSGVHTFPAVLQSSGLYSLSSVVTVPSSSLGTQTYICNVNHKPSNTKVDKKVEPKSCDKTHTCPPCPVPELLTGPSVFLFPPKPKDTLMISRTPEVTCVVVDVSDEDPEVKFNWYVDGVEVHNAKTKPREEQYNSTYRVVSVLTVLHQDWLNGKEYKCKVSNKALPKPIEKTISKAKGQPREPQVYTLPPSREEMTKNQVSLTCLVKGFYPSDIAVEWESNGQPENNYKTTPPVLDSDGSFFLYSKLTVDKSRWQQGNVFSCSVMHEALHNHYTQKSLSLSP
light: DIVMTQSPATLSLSPGERATLSCTSSQSVYHANWLSWFQQKPGQPPKLLIYWASTLAYGVPSRFSGSGSGTDFTLTISSLQPEDAATYYCAGGYGGGRYAFGQGTKVEIKRTVAAPSVFIFPPSDEQLKSGTASVVCLLNNFYPREAKVQWKVDNALQSGNSQESVTEQDSKDSTYSLSSTLTLSKADYEKHKVYACEVTHQGLSSPVTKSFNRGEC
notes: as for B1
